In article PMC4437705 (Nature, 2013):
Blank lines part the entries; values can stand above or below the binder they belong to.

Tests used:
[1] = target: T1, apo-FabA (E. coli fatty acid 3-hydroxyacyl-ACP dehydratase, unlabeled, not crosslinked) (E. coli, UniProt P0A6Q3 2-172); assay: NMR titration
T1 sequence: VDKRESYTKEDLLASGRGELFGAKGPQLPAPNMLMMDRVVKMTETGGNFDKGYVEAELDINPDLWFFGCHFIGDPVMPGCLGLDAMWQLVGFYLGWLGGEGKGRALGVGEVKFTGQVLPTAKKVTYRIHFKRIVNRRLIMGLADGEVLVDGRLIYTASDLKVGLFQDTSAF

crystal structure = target: the molecule itself; assay: crystal structure

- binding result [1]: binds
B1: holo-AcpP (E. coli acyl carrier protein with 4'-phosphopantetheine) (natural protein)
chain: STIEERVKKIIGEQLGVKQEEVTNNASFVEDLGADSLDTVELVMALEEEFDTEIPDEEAEKITTVQAAIDYINGHQA
modifications: 4'-phosphopantetheine (PPant) on S36

- binding result [1]: binds
B2: octanoyl-AcpP (E. coli acyl carrier protein with octanoyl-4'-phosphopantetheine) (natural protein)
chain: B1 chain
modifications: octanoyl chain on the PPant arm attached to S36

B3: FabA (E. coli fatty acid 3-hydroxyacyl-ACP dehydratase) as in the crosslinked AcpP=FabA complex (enzyme)
chain: T1 sequence
modifications: H70 covalently connected through probe 1 to S36 of AcpP
- stoichiometry N (crystal structure): 2
